Results on ten molecules are retold here after patent EP4538294A1 (Shandong Simcere Biopharmaceutical Co., Ltd., dated 2025).

Where “and” joins values, the source holds several entries; their conditions need not be identical. Identical values can stand only once.

T1: human BCMA on Flp-inCHO-human BCMA cells (human, UniProt Q02223 1-184)
T1 construct: whole, on cells
T1 sequence (looked up): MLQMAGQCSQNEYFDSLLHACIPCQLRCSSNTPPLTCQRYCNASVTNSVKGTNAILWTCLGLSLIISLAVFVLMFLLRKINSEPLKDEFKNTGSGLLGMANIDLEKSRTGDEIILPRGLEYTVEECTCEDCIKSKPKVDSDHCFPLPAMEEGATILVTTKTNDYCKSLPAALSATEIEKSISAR

B1: antiFITC×CD3-Hab01 (bispecific antibody, human IgG4 S228P, kappa, F234A L235A)
heavy: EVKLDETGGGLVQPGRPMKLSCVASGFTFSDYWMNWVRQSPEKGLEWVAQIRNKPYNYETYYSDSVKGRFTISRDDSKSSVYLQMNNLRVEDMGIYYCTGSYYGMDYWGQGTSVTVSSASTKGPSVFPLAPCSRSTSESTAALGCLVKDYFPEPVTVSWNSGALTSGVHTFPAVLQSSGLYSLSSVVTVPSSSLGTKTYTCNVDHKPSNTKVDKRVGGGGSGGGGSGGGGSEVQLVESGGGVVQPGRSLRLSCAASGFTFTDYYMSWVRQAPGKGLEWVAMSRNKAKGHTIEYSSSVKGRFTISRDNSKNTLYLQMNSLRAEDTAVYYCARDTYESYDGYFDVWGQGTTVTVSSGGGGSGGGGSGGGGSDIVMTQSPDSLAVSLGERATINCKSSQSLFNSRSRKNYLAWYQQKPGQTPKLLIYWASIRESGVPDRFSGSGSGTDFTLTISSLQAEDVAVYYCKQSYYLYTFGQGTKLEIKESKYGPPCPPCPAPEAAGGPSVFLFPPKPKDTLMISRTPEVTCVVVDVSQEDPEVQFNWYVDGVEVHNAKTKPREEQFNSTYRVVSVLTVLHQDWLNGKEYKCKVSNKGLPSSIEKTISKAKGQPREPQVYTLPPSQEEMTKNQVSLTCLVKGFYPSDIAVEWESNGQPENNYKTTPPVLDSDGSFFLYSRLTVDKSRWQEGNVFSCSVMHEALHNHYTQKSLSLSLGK
light: DVVMTQTPLSLPVSLGDQASISCRSSQSLVHSNGNTYLRWYLQKPGQSPKVLIYKVSNRFSGVPDRFSGSGSGTDFTLKISRVEAEDLGVYFCSQSTHVPWTFGGGTKLEIKRTVAAPSVFIFPPSDEQLKSGTASVVCLLNNFYPREAKVQWKVDNALQSGNSQESVTEQDSKDSTYSLSSTLTLSKADYEKHKVYACEVTHQGLSSPVTKSFNRGEC
notes: Negative control for the tumor antigens, prepared internally; carries the CD3-Hab01 arm
B2: Tri-17 (trispecific antibody, V domains shown)
VHH: EVQLVESGGGLVQPGGSLRLSCSASGFTLDYYMIGWFRQAPGKEREGLSSISPADGSTYYADSVKGRFTISRDSSKNTVYLQMNSLRAEDTAVYYCAAGNEATISWGFGPWEYDYWGQGTMVTVSS
VH 1: EVQLVQSGAEVKKPGSSVKVSCKASGYTFTSYGISWVRQAPGQGLEWMGEIYPRSGNTYYNEKFKGRVTLTADKSTSTAYMELSSLRSEDTAVYYCARGRAYGRNYPMDYWGQGTTVTVSS
VL 1: EIVLTQSPATLSLSPGERATLSCRASQSIGTSIHWYQQKPGQSPRLLIKYASESISGIPARFSGSGSGTDFTLTISSLEPEDFAVYYCQQSNSWPYTFGGGTKVEIK
VH 2: EVQLVESGGGVVQPGRSLRLSCAASGFTFTDYYMSWVRQAPGKGLEWVAMSRNKAKGHTIEYSSSVKGRFTISRDNSKNTLYLQMNSLRAEDTAVYYCARDTYESYDGYFDVWGQGTTVTVSS
VL 2: DIVMTQSPDSLAVSLGERATINCKSSQSLFNSRSRKNYLAWYQQKPGQTPKLLIYWASIRESGVPDRFSGSGSGTDFTLTISSLQAEDVAVYYCKQSYYLYTFGQGTKLEIK
B3: Tri-63 (trispecific antibody, V domains shown)
VHH: EVQLVESGGGLVQPGGSLRLSCAASESISSIHIMAWYRQAPGKQRELVAGIRNDGSTVYVDSVKGRFTISRDNAKNSLYLQMNSLRAEDTAVYYCNADQGFGSYSEWERRSRWGQGTTVTVSS
VH 1: B2 VH 1
VL 1: B2 VL 1
VH 2: B2 VH 2
VL 2: B2 VL 2
B4: Tri-66 (trispecific antibody, V domains shown)
VHH: B3 VHH
VH 1: EVQLVQSGAEVKKPGASVKVSCKTSGYIFTNFGITWVRQAPGQRLEWMGENYPRRINTYYNEKFKGRVTITADKSASTAYMELSSLRSEDTAVYYCSRKDIFGLSYALDYWGQGTTVTVSS
VL 1: DIQMTQSPSSLSASVGDRVTITCKASQNVGTNVAWYQHKPGKSPKALIYSASYQYSGVPSRFSGSGSGTDFTLTISSLQPEDVATYICQQYKNYPYTFGGGTKVEIK
VH 2: B2 VH 2
VL 2: B2 VL 2
B5: Tri-38 (trispecific antibody, V domains shown)
VHH: B2 VHH
VH 1: B2 VH 1
VL 1: B2 VL 1
VH 2: B2 VH 2
VL 2: B2 VL 2
B6: Tri-46 (trispecific antibody, V domains shown)
VHH: B3 VHH
VH 1: B2 VH 1
VL 1: B2 VL 1
VH 2: B2 VH 2
VL 2: B2 VL 2
B7: Tri-52 (trispecific antibody, V domains shown)
VHH: B3 VHH
VH 1: B2 VH 1
VL 1: B2 VL 1
VH 2: B2 VH 2
VL 2: B2 VL 2
B8: Tri-65 (trispecific antibody, V domains shown)
VHH: B3 VHH
VH 1: B4 VH 1
VL 1: B4 VL 1
VH 2: B2 VH 2
VL 2: B2 VL 2
B9: Tri-56 (trispecific antibody, V domains shown)
VHH: B3 VHH
VH 1: B2 VH 1
VL 1: B2 VL 1
VH 2: B2 VH 2
VL 2: B2 VL 2
B10: Tri-64 (trispecific antibody, V domains shown)
VHH: B3 VHH
VH 1: B2 VH 1
VL 1: B2 VL 1
VH 2: B2 VH 2
VL 2: B2 VL 2

In one assay the target is T1, human BCMA on Flp-inCHO-human BCMA cells. As to the kind of experiment: FACS, Flp-inCHO-human BCMA cells.
Regarding B1, the binding result is listed as “no binding (tested: 100 nM highest concentration)”.
With B2, the concentration giving a half-maximal response (EC50) turned out to be 2.97 nM.
Same read-out and setting: the result for B3 reads 2.1 nM; that for B4, 1.09 nM; that for B5, 4.43 nM.
Same read-out and setting: with B6 the figure was 5.19 nM; with B7, 1.88 nM; with B8, 2.54 nM.
For B9, the EC50 worked out at 1.3 nM.
On the same count and under the same terms, the result for B10 reads 1.08 nM.

For the next assay, the target named is T2, monkey CD3 on activated monkey PBMC (monkey).
T2 construct: whole, on cells
T2 sequence (Q95LI5 22-198): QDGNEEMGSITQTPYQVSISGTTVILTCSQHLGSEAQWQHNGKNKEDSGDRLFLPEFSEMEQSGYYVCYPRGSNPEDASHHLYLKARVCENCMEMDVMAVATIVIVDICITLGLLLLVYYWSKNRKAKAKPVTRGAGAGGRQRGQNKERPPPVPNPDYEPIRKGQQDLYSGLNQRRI
As to the kind of experiment: FACS, activated monkey PBMC.
As to B1, the EC50 is 15.2 nM and 12.4 nM.
For the molecule B2, the “Maximum mean fluorescence intensity” value is 3280.
With B3, the “Maximum mean fluorescence intensity” value amounted to 434.
On the same count and under the same terms, the result for B4 reads 345; that for B5, 1440.
On to B6, for which the “Maximum mean fluorescence intensity” value was 416.
As for B7, the “Maximum mean fluorescence intensity” value was 693.
For B8, the “Maximum mean fluorescence intensity” value amounted to 377.
Regarding B9, the “Maximum mean fluorescence intensity” value was found to be 575.
Same read-out and setting: the result for B10 reads 348.

The target of the next assay is T3, human GPRC5D on CHOK1-human GPRC5D cells (human, UniProt Q9NZD1 1-345).
T3 construct: whole, on cells
T3 sequence (Q9NZD1 whole entry): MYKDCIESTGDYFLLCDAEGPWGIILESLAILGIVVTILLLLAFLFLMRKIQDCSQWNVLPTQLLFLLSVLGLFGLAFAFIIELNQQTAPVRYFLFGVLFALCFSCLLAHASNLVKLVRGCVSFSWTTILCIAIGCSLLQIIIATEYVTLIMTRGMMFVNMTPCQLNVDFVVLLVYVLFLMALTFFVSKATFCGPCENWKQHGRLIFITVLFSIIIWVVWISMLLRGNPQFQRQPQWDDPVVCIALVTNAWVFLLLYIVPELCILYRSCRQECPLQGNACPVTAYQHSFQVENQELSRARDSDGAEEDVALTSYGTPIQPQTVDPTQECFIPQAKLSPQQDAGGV
As to the kind of experiment: FACS, CHOK1-human GPRC5D cells.
In the case of B1, the binding result is “no binding (tested: 100 nM highest concentration)”.
Take B2: the concentration for a half-maximal effect (EC50) is 0.69 nM.
The molecule B3 displayed an EC50 of 3.8 nM.
Still for that read-out and setting: the result for B4 reads 1.53 nM; that for B5, 2.06 nM.
The molecule B6 displayed an EC50 of 2.36 nM.
Same read-out and setting: with B7 the figure was 2.97 nM; with B8, 1.66 nM.
Still for that read-out and setting: with B9 the figure was 0.38 nM; with B10, 3.63 nM.
